Molecular target: SARS-CoV-2 WT RBD (SARS-CoV-2, UniProt P0DTC2 319-541)
Assay: SPR

B1: Mouse Fc (mFc) tagged mink ACE2 (Fc fusion)
chain: QSTTEDLAKTFLEKFNYEAEELSYQNSLASWNYNTNITDENIQKMNIAGAKWSAFYEEESQHAKTYPLEEIQDPIIKRQLRALQQSGSSVLSADKRERLNTILNAMSTIYSTGKACNPNNPQECLLLEPGLDDIMENSKDYNERLWAWEGWRSEVGKQLRPLYEEYVALKNEMARANNYEDYGDYWRGDYEEEWADGYNYSRNQLIEDVEHTFTQIKPLYEHLHAYVRAKLMDAYPSRISPTGCLPAHLLGDMWGRFWTNLYPLMVPFGQKPNIDVTDAMVNQSWDARRIFKEAEKFFVSVGLPNMTEGFWQNSMLTEPGDNRKVVCHPTAWDLGKHDFRIKMCTKVTMDDFLTAHHEMGHIQYDMAYAAQPFLLRNGANEGFHEAVGEIMSLSAATPNHLKNIGLLPPDFSEDSETDINFLLKQALTIVGTLPFTYMLEKWRWMVFKGEIPKEQWMQKWWEMKRDIVGVVEPLPHDETYCDPAALFHVANDYSFIRYYTRTIYQFQFQEALCQIAKHEGPLYKCDISNSREAGQKLHEMLSLGRSKPWTFALERVVGAKTMDVRPLLNYFEPLFTWLKEQNRNSFVGWNTDWSPYADQSIKVRISLKSALGEKAYEWNDNEMYFFQSSIAYAMREYFSKVKKQTIPFVDKDVRVSDLKPRISFNFIVTSPENMSDIIPRADVEEAIRKSRGRINDAFRLDDNSLEFLGIQPTLEPPYQPPVT
  koff: 1.65 s⁻¹
